Test results published in patent publication US20090136936A1 (RESEARCH DEVELOPMENT FOUNDATION, published 2009).

B1: Recombinant human FcγRI/CD64, extracellular domain, glycosylated (receptor, UniProt P12314 16-292, looked up)
chain: QVDTTKAVITLQPPWVSVFQEETVTLHCEVLHLPGSSSTQWFLNGTATQTSTPSYRITSASVNDSGEYRCQRGLSGRSDPIQLEIHRGWLLLQVSSRVFTEGEPLALRCHAWKDKLVYNVLYYRNGKAFKFFHWNSNLTILKTNISHNGTYHCSGMGKHRYTSAGISVTVKELFPAPVLNASVTSPLLEGNLVTLSCETKLLLQRPGLQLYFSFYMGSKTLRGRNTSSEYQILTARREDSGLYWCEAATEDGNVLKRSPELELQVLGLQLPTPVWFH
notes: extracellular domain; also called FcγRIa; FcγRIa-FITC

Assays:
[1] = target: T1, BSA (Bos taurus, UniProt P02769); test: fluorescence ELISA: BSA coated wells, FITC labeled FcγRIa serially diluted 4-fold [panel b]
T1 construct: also called BSA coated
T1 sequence (P02769 25-607 limits assumed): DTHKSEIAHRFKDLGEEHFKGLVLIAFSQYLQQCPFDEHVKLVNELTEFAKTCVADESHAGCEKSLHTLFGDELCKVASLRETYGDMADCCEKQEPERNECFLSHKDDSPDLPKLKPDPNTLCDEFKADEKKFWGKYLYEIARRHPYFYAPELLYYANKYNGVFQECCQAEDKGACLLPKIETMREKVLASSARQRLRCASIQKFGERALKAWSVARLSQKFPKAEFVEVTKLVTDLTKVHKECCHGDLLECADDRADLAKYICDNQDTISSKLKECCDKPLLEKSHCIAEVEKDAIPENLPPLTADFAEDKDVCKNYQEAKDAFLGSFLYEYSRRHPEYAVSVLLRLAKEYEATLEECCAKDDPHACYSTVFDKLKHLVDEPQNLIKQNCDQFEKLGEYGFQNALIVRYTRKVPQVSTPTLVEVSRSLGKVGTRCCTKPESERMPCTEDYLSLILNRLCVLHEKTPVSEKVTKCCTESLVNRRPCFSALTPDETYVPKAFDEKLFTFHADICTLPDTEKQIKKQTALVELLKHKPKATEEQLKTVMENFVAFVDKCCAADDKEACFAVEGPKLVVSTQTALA

[2] = target: B1; test: flow cytometry of spheroplasts displaying the Fc, labelled with FcγRIa-FITC [panel b]
[3] = target: B1; test: flow cytometry of spheroplasts displaying the Fc clone, labelled with FcγRIa-FITC; the value is repeated on D00019 and D00020
[4] = target: B1; test: SPR (BIAcore 3000), FcγRIa immobilized on CM-5
[5] = target: T2, extracellular domain of aglycosylated FcγRIIIa purified from E. coli inclusion bodies, FITC-labeled (human, UniProt P08637 17-208); test: flow cytometry of spheroplasts displaying the Fc, labelled with FcγRIIIa-FITC
T2 construct: extracellular domain; also called FcγRIIIa-FITC
T2 sequence (P08637 17-208): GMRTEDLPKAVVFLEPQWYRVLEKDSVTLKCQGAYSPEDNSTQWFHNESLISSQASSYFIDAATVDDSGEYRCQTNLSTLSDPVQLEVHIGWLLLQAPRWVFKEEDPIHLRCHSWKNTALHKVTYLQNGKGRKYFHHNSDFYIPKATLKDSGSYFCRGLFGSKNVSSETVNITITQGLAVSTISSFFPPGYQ

[6] = target: Protein A-FITC (Staphylococcus aureus, UniProt P38507 37-477); test: flow cytometry of spheroplasts, PMT 700V, TB with 0.5M trehalose, labeling with Protein A-FITC [panel a]

B1
binding result [1]: no binding

B2: Fc12 (N361D, E382V, M428I), aglycosylated Fc mutant (other)
chain: DKTHTCPPCPAPELLGGPSVFLFPPKPKDTLMISRTPEVTCVVVDVSHEDPEVKFNWYVDGVEVHNAKTKPREEQYNSTYRVVSVLTVLHQDWLNGKEYKCKVSNKALPAPIEKTISKAKGQPREPQVYTLPPSRDELTKDQVSLTCLVKGFYPSDIAVEWVSNGQPENNYKTTPPVLDSDGSFFLYSKLTVDKSRWQQGNVFSCSVIHEALHNHYTQKSLSLSPGK
M (mean fluorescence intensity) [2]: 307

B3: Fc151 (E382V, S426I, M428L, E430S), aglycosylated Fc mutant (other)
chain: DKTHTCPPCPAPELLGGPSVFLFPPKPKDTLMISRTPEVTCVVVDVSHEDPEVKFNWYVDGVEVHNAKTKPREEQYNSTYRVVSVLTVLHQDWLNGKEYKCKVSNKALPAPIEKTISKAKGQPREPQVYTLPPSRDELTKNQVSLTCLVKGFYPSDIAVEWVSNGQPENNYKTTPPVLDSDGSFFLYSKLTVDKSRWQQGNVFSCIVLHSALHNHYTQKSLSLSPGK
FACS mean value [3]: 326

B4: Fc23 (H310Y, K322R, T350A, E382V, S426T, S442P), aglycosylated Fc mutant (other)
chain: DKTHTCPPCPAPELLGGPSVFLFPPKPKDTLMISRTPEVTCVVVDVSHEDPEVKFNWYVDGVEVHNAKTKPREEQYNSTYRVVSVLTVLYQDWLNGKEYKCRVSNKALPAPIEKTISKAKGQPREPQVYALPPSRDELTKNQVSLTCLVKGFYPSDIAVEWVSNGQPENNYKTTPPVLDSDGSFFLYSKLTVDKSRWQQGNVFSCTVMHEALHNHYTQKSLPLSPGK
M (mean fluorescence intensity) [2]: 335

B5: Fc100 (other)
Fc chain: DKTHTCPPCPAPELLGGPSVFLFPPKPKDTLMISRTPEVTCVVVDVSHEDPEVKFNWYVDGVEVHNAKTKPREEQYNSTYRVVSVLTVLHQDWLNGKEYKCKVSNKALPAPIEKTISKAKGQPREPQVYTLPPSRDELTKNQVSLTCLVKGFYPSDIAVTWMSEGQPENNYKTTPPVLDSDGSFFLYSKLTVDKSRWQQGNVFSCSVMHEALHNHYTQKSLSLSPGK
FACS mean value [3]: 138

B6: Fc102 (other)
Fc chain: DKTHTCPPCPAPELLGGPSVFLFPPKPKDTLMISRTPEVTCVVVDVSHEDPEVKFNWYVDGVEVHNAKTKPREEQYNSTYRVVSVLTVLHQDWLNGKEYKCKVSNKALPAPIEKTISKAKGQPREPQVYTLPPSRDELTKDQVSLTCLVKGFYPSDIAVEWVSNGQPENNYKTTPPVLDSDGSFFLYSKLTVDKSRWQQGNVFSCSVIHEALHNHYTQKSLSLSPGK
FACS mean value [3]: 374

B7: Fc147 (other)
Fc chain: DKTHTCPPRPAPELLGGPSVFLFPPKPKDTLMISRTPEVTCVVVDVSHEDPEVKFNWYVDGVEVHNAKTKPREEQYNSTYRVVSVLTVLHQDWLNGKEYKCKVSNKALPAPIEKTISKAKGQPREPQVYTLPPSRDELTKNQVSLTCLVKGFYPSDIAVEWVSNGQPENNYKTTPPVLDSDGSFFLYSKLTVDKSRWQQGNVFSCSVIHEALHNHYTQKSLSLSPGK
FACS mean value [3]: 464

B8: Fc152 (H224R, E382V, S426T, M428S, E430P), aglycosylated Fc mutant (other)
chain: DKTRTCPPCPAPELLGGPSVFLFPPKPKDTLMISRTPEVTCVVVDVSHEDPEVKFNWYVDGVEVHNAKTKPREEQYNSTYRVVSVLTVLHQDWLNGKEYKCKVSNKALPAPIEKTISKAKGQPREPQVYTLPPSRDELTKNQVSLTCLVKGFYPSDIAVEWVSNGQPENNYKTTPPVLDSDGSFFLYSKLTVDKSRWQQGNVFSCTVSHPALHNHYTQKSLSLSPGK
FACS mean value [3]: 173

B9: Fc143 (P238S, E382V, S426V, M428L, E430H), aglycosylated Fc mutant (other)
chain: DKTHTCPPCPAPELLGGSSVFLFPPKPKDTLMISRTPEVTCVVVDVSHEDPEVKFNWYVDGVEVHNAKTKPREEQYNSTYRVVSVLTVLHQDWLNGKEYKCKVSNKALPAPIEKTISKAKGQPREPQVYTLPPSRDELTKNQVSLTCLVKGFYPSDIAVEWVSNGQPENNYKTTPPVLDSDGSFFLYSKLTVDKSRWQQGNVFSCVVLHHALHNHYTQKSLSLSPGK
FACS mean value [3]: 211

B10: Fc149 (E380D, E382V, N384R, S426V, M428L, E430D), aglycosylated Fc mutant (other)
chain: DKTHTCPPCPAPELLGGPSVFLFPPKPKDTLMISRTPEVTCVVVDVSHEDPEVKFNWYVDGVEVHNAKTKPREEQYNSTYRVVSVLTVLHQDWLNGKEYKCKVSNKALPAPIEKTISKAKGQPREPQVYTLPPSRDELTKNQVSLTCLVKGFYPSDIAVDWVSRGQPENNYKTTPPVLDSDGSFFLYSKLTVDKSRWQQGNVFSCVVLHDALHNHYTQKSLSLSPGK
FACS mean value [3]: 140

B11: Fc49 (C229R, E382V, M428I), aglycosylated Fc mutant (other)
chain: DKTHTCPPRPAPELLGGPSVFLFPPKPKDTLMISRTPEVTCVVVDVSHEDPEVKFNWYVDGVEVHNAKTKPREEQYNSTYRVVSVLTVLHQDWLNGKEYKCKVSNKALPAPIEKTISKAKGQPREPQVYTLPPSRDELTKNQVSLTCLVKGFYPSDIAVEWVSNGQPENNYKTTPPVLDSDGSFFLYSKLTVDKSRWQQGNVFSCSVIHEALHNHYTQKSLSLSPGK
notes: also called aglycosylated-Fc49
Kd [4]: 0.092 µM | koff [4]: 0.0023 s⁻¹ | kon [4]: 25000 M⁻¹ s⁻¹ | M (mean fluorescence intensity) [2]: 409

B12: Fc114 (N361S, E382V, M428I), aglycosylated Fc mutant (other)
chain: DKTHTCPPCPAPELLGGPSVFLFPPKPKDTLMISRTPEVTCVVVDVSHEDPEVKFNWYVDGVEVHNAKTKPREEQYNSTYRVVSVLTVLHQDWLNGKEYKCKVSNKALPAPIEKTISKAKGQPREPQVYTLPPSRDELTKSQVSLTCLVKGFYPSDIAVEWVSNGQPENNYKTTPPVLDSDGSFFLYSKLTVDKSRWQQGNVFSCSVIHEALHNHYTQKSLSLSPGK
FACS mean value [3]: 370

B13: Fc20 (N361D, F372L, E382V, M428I), aglycosylated Fc mutant (other)
chain: DKTHTCPPCPAPELLGGPSVFLFPPKPKDTLMISRTPEVTCVVVDVSHEDPEVKFNWYVDGVEVHNAKTKPREEQYNSTYRVVSVLTVLHQDWLNGKEYKCKVSNKALPAPIEKTISKAKGQPREPQVYTLPPSRDELTKDQVSLTCLVKGLYPSDIAVEWVSNGQPENNYKTTPPVLDSDGSFFLYSKLTVDKSRWQQGNVFSCSVIHEALHNHYTQKSLSLSPGK
M (mean fluorescence intensity) [2]: 295

B14: Fc106 (E382T, N384D, M428I), aglycosylated Fc mutant (other)
chain: DKTHTCPPCPAPELLGGPSVFLFPPKPKDTLMISRTPEVTCVVVDVSHEDPEVKFNWYVDGVEVHNAKTKPREEQYNSTYRVVSVLTVLHQDWLNGKEYKCKVSNKALPAPIEKTISKAKGQPREPQVYTLPPSRDELTKNQVSLTCLVKGFYPSDIAVEWTSDGQPENNYKTTPPVLDSDGSFFLYSKLTVDKSRWQQGNVFSCSVIHEALHNHYTQKSLSLSPGK
FACS mean value [3]: 269

B15: Fc217 (LGDGSPCKAN insertion between N297 and S298), aglycosylated Fc mutant (other)
chain: DKTHTCPPCPAPELLGGPSVFLFPPKPKDTLMISRTPEVTCVVVDVSHEDPEVKFNWYVDGVEVHNAKTKPREEQYNLGDGSPCKANSTYRVVSVLTVLHQDWLNGKEYKCKVSNKALPAPIEKTISKAKGQPREPQVYTLPPSRDELTKNQVSLTCLVKGFYPSDIAVEWESNGQPENNYKTTPPVLDSDGSFFLYSKLTVDKSRWQQGNVFSCSVMHEALHNHYTQKSLSLSPGK
M (mean fluorescence intensity) [5]: 500

B16: Fc209 (F241L, K326E, EVPLVWMWVS insertion between N297 and S298), aglycosylated Fc mutant (other)
chain: DKTHTCPPCPAPELLGGPSVLLFPPKPKDTLMISRTPEVTCVVVDVSHEDPEVKFNWYVDGVEVHNAKTKPREEQYNEVPLVWMWVSSTYRVVSVLTVLHQDWLNGKEYKCKVSNEALPAPIEKTISKAKGQPREPQVYTLPPSRDELTKNQVSLTCLVKGFYPSDIAVEWESNGQPENNYKTTPPVLDSDGSFFLYSKLTVDKSRWQQGNVFSCSVMHEALHNHYTQKSLSLSPGK
M (mean fluorescence intensity) [5]: 291

B17: Fc207 (QLISHYRHLT insertion between N297 and S298), aglycosylated Fc mutant (other)
chain: DKTHTCPPCPAPELLGGPSVFLFPPKPKDTLMISRTPEVTCVVVDVSHEDPEVKFNWYVDGVEVHNAKTKPREEQYNQLISHYRHLTSTYRVVSVLTVLHQDWLNGKEYKCKVSNKALPAPIEKTISKAKGQPREPQVYTLPPSRDELTKNQVSLTCLVKGFYPSDIAVEWESNGQPENNYKTTPPVLDSDGSFFLYSKLTVDKSRWQQGNVFSCSVMHEALHNHYTQKSLSLSPGK
M (mean fluorescence intensity) [5]: 143

B18: Fc216 (WQVFNKYTKP insertion between N297 and S298), aglycosylated Fc mutant (other)
chain: DKTHTCPPCPAPELLGGPSVFLFPPKPKDTLMISRTPEVTCVVVDVSHEDPEVKFNWYVDGVEVHNAKTKPREEQYNWQVFNKYTKPSTYRVVSVLTVLHQDWLNGKEYKCKVSNKALPAPIEKTISKAKGQPREPQVYTLPPSRDELTKNQVSLTCLVKGFYPSDIAVEWESNGQPENNYKTTPPVLDSDGSFFLYSKLTVDKSRWQQGNVFSCSVMHEALHNHYTQKSLSLSPGK
M (mean fluorescence intensity) [5]: 496

B19: dsbA-FcγRIIa-His (receptor, Homo sapiens, UniProt P12318 34-217, looked up)
receptor chain: QAAAPPKAVLKLEPPWINVLQEDSVTLTCQGARSPESDSIQWFHNGNLIPTHTQPSYRFKANNNDSGEYTCQTGQTSLSDPVHLTVLSEWLVLQTPHLEFQEGETIMLRCHSWKDKPLVKVTFFQNGKSQKFSHLDPTFSIPQANHSHSGDYHCTGNIGYTLFSSKPVTITVQVPSMGSSSPMG
notes: soluble mature form, exported to the E. coli periplasm by the dsbA signal; also called product of pTrcdsbAHis-FcγRIIa
binding result [6]: no binding
